What follows are sequences tested on Escherichia coli TOP10 (assay: shrunken log2 fold change of peptide-encoding DNA abundance (4.5 h post-induction vs induction); higher = less antimicrobial activity (less host growth inhibition)). Conditions: time post-induction: 4.5 h; library: site-saturation at positions 5, 18, 19, 20.
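Also: peptides expressed intracellularly from a pBAD plasmid library in pooled LB shake-flask culture, induced with 0.3% L-arabinose, DNA abundance read by NGS, three biological replicates, DESeq2 with apeglm shrinkage.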

Row | Sequence | shrunken log2 fold change
1 | RRIRERPPRLPRPRPRPLVGPRP | -0.198
2 | RRIRERPPRLPRPRPRPLVIPRP | -0.169
3 | RRIRERPPRLPRPRPRPLYGPRP | -0.136
4 | RRIRERPPRLPRPRPRPMAPPRP | 1.59
5 | RRIRERPPRLPRPRPRPMARPRP | 0.116
6 | RRIRERPPRLPRPRPRPMCYPRP | -0.403
7 | RRIRERPPRLPRPRPRPMDMPRP | -0.189
8 | RRIRERPPRLPRPRPRPMDWPRP | 0.0151
9 | RRIRERPPRLPRPRPRPMEQPRP | -0.136
10 | RRIRERPPRLPRPRPRPMETPRP | 0.015
11 | RRIRERPPRLPRPRPRPMFQPRP | -0.952
12 | RRIRERPPRLPRPRPRPMFTPRP | -0.278
13 | RRIRERPPRLPRPRPRPMFWPRP | 0.0831
14 | RRIRERPPRLPRPRPRPMFYPRP | -0.0786
15 | RRIRERPPRLPRPRPRPMGIPRP | -0.113
16 | RRIRERPPRLPRPRPRPMGNPRP | 0.0248
17 | RRIRERPPRLPRPRPRPMIKPRP | -1.07
18 | RRIRERPPRLPRPRPRPMIMPRP | -0.00163
19 | RRIRERPPRLPRPRPRPMKNPRP | -0.22
20 | RRIRERPPRLPRPRPRPMLNPRP | -0.106
21 | RRIRERPPRLPRPRPRPMMFPRP | -0.0555
22 | RRIRERPPRLPRPRPRPMNTPRP | -0.0609

Row | Sequence | shrunken log2 fold change
23 | RRIRERPPRLPRPRPRPMPCPRP | -0.0207
24 | RRIRERPPRLPRPRPRPMPFPRP | 0.00529
25 | RRIRERPPRLPRPRPRPMPVPRP | -0.107
26 | RRIRERPPRLPRPRPRPMQEPRP | 0.216
27 | RRIRERPPRLPRPRPRPMRIPRP | 0.257
28 | RRIRERPPRLPRPRPRPMSVPRP | -0.158
29 | RRIRERPPRLPRPRPRPMTIPRP | -0.155
30 | RRIRERPPRLPRPRPRPMVLPRP | 0.104
31 | RRIRERPPRLPRPRPRPMWIPRP | -0.102
32 | RRIRERPPRLPRPRPRPMYFPRP | -0.251
33 | RRIRERPPRLPRPRPRPMYYPRP | -0.241
34 | RRIRERPPRLPRPRPRPNACPRP | -0.00102
35 | RRIRERPPRLPRPRPRPNALPRP | -0.247
36 | RRIRERPPRLPRPRPRPNATPRP | 0.287
37 | RRIRERPPRLPRPRPRPNCRPRP | -0.238
38 | RRIRERPPRLPRPRPRPNDKPRP | -0.507
39 | RRIRERPPRLPRPRPRPNDPPRP | -0.488
40 | RRIRERPPRLPRPRPRPNEQPRP | -0.215
41 | RRIRERPPRLPRPRPRPNFDPRP | -0.145
42 | RRIRERPPRLPRPRPRPNGHPRP | 0.0479
43 | RRIRERPPRLPRPRPRPNHQPRP | -0.259
44 | RRIRERPPRLPRPRPRPNHRPRP | -0.101

Row | Sequence | shrunken log2 fold change
45 | RRIRERPPRLPRPRPRPNIEPRP | -0.136
46 | RRIRERPPRLPRPRPRPNIHPRP | -0.637
47 | RRIRERPPRLPRPRPRPNIMPRP | -0.444
48 | RRIRERPPRLPRPRPRPNISPRP | -1.14
49 | RRIRERPPRLPRPRPRPNKTPRP | 0.0491
50 | RRIRERPPRLPRPRPRPNMTPRP | -0.276
51 | RRIRERPPRLPRPRPRPNNNPRP | -0.977
52 | RRIRERPPRLPRPRPRPNNYPRP | -0.821
53 | RRIRERPPRLPRPRPRPNPPPRP | 0.181
54 | RRIRERPPRLPRPRPRPNPTPRP | 0.00617
55 | RRIRERPPRLPRPRPRPNRNPRP | -1.09
56 | RRIRERPPRLPRPRPRPNRWPRP | 0.0283
57 | RRIRERPPRLPRPRPRPNSIPRP | -0.317
58 | RRIRERPPRLPRPRPRPNTHPRP | -0.704
59 | RRIRERPPRLPRPRPRPNVYPRP | -0.439
60 | RRIRERPPRLPRPRPRPNWWPRP | 0.196
61 | RRIRERPPRLPRPRPRPPCWPRP | 0.0636
62 | RRIRERPPRLPRPRPRPPEIPRP | 0.115
63 | RRIRERPPRLPRPRPRPPEPPRP | 0.333
64 | RRIRERPPRLPRPRPRPPIAPRP | 0.13
65 | RRIRERPPRLPRPRPRPPIHPRP | -0.502
66 | RRIRERPPRLPRPRPRPPIVPRP | -0.302

Row | Sequence | shrunken log2 fold change
67 | RRIRERPPRLPRPRPRPPKGPRP | -0.16
68 | RRIRERPPRLPRPRPRPPKIPRP | -0.28
69 | RRIRERPPRLPRPRPRPPLPPRP | 0.151
70 | RRIRERPPRLPRPRPRPPMMPRP | -0.0743
71 | RRIRERPPRLPRPRPRPPNDPRP | -0.462
72 | RRIRERPPRLPRPRPRPPQHPRP | 0.128
73 | RRIRERPPRLPRPRPRPPRAPRP | 0.453
74 | RRIRERPPRLPRPRPRPPRLPRP | 0.178
75 | RRIRERPPRLPRPRPRPPSHPRP | -0.209
76 | RRIRERPPRLPRPRPRPPSLPRP | -0.0799
77 | RRIRERPPRLPRPRPRPPSSPRP | 0.0527
78 | RRIRERPPRLPRPRPRPPTFPRP | -0.767
79 | RRIRERPPRLPRPRPRPPVHPRP | -0.145
80 | RRIRERPPRLPRPRPRPPVQPRP | -0.122
81 | RRIRERPPRLPRPRPRPPWHPRP | -0.0644
82 | RRIRERPPRLPRPRPRPPWRPRP | 0.424
83 | RRIRERPPRLPRPRPRPPWYPRP | -0.227
84 | RRIRERPPRLPRPRPRPQAQPRP | -0.0773
85 | RRIRERPPRLPRPRPRPQASPRP | -0.328
86 | RRIRERPPRLPRPRPRPQATPRP | -0.0202
87 | RRIRERPPRLPRPRPRPQCCPRP | -0.106
88 | RRIRERPPRLPRPRPRPQCFPRP | -0.702

Row | Sequence | shrunken log2 fold change
89 | RRIRERPPRLPRPRPRPQFAPRP | -0.148
90 | RRIRERPPRLPRPRPRPQFYPRP | -0.452
91 | RRIRERPPRLPRPRPRPQHSPRP | -0.597
92 | RRIRERPPRLPRPRPRPQKGPRP | -0.213
93 | RRIRERPPRLPRPRPRPQKKPRP | 0.0196
94 | RRIRERPPRLPRPRPRPQLVPRP | 0.0441
95 | RRIRERPPRLPRPRPRPQMGPRP | -0.115
96 | RRIRERPPRLPRPRPRPQMYPRP | -0.337
97 | RRIRERPPRLPRPRPRPQNPPRP | -0.213
98 | RRIRERPPRLPRPRPRPQPGPRP | 0.0699
99 | RRIRERPPRLPRPRPRPQQAPRP | 0.01
100 | RRIRERPPRLPRPRPRPQSIPRP | -2.26
101 | RRIRERPPRLPRPRPRPQSLPRP | -0.0684
102 | RRIRERPPRLPRPRPRPQTNPRP | -0.554
103 | RRIRERPPRLPRPRPRPQVCPRP | -0.245
104 | RRIRERPPRLPRPRPRPQVHPRP | -0.445
105 | RRIRERPPRLPRPRPRPQWQPRP | -0.109
106 | RRIRERPPRLPRPRPRPQYDPRP | -0.418
107 | RRIRERPPRLPRPRPRPQYHPRP | -0.172
108 | RRIRERPPRLPRPRPRPQYRPRP | -0.612
109 | RRIRERPPRLPRPRPRPRCDPRP | -0.044

From the supplement of paper PMC9112550, “Optimization of the antimicrobial peptide Bac7 by deep mutational scanning” (BMC Biology, 2022)
